Laboratory results taken from the nanobody polyreactivity screen of Harvey et al. (2022).

Experiment: yeast display, Sf9 membrane polyspecificity reagent, FACS + sequencing; frameworks hold sequencing errors
Outline: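 Nanobodies came from a synthetic yeast display library in Saccharomyces cerevisiae BJ5465, induced with galactose for 36–48 hours and stained for 1 hour at 4 °C with 10% biotinylated, detergent-solubilized Sf9 membrane reagent. Cells were enriched on streptavidin microbeads and then FACS-sorted, with low and high (top ~1%) gates set on anti-HA fluorescence for expression and streptavidin fluorescence for reagent binding. Each polyreactivity label reflects the gate a clone came from. Genes were amplified by colony PCR, sequenced by MiSeq 2 × 250 and filtered by CDR length.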

| Sequence | polyreactivity (PSR sort gate) |
| --- | --- |
| QVQLVESGGGLVQAGGSLRLSCAASGSIFPTNAMGWYRQAPGKERELVAAITSTAGSTYYADSVKGRFTISRDNAKNSVYLQMNSLKPEDTAVYYCAATYKVGVKSWYDYWGQGTQVTVSS | high polyreactivity |
| QVQLVESGGGLVQAGGSLRLSCSASGSIFDGYAMGWYRQAPGKEREIVAAISKGGTRTYYADSVMGRFTISRDNAKNTVYLQMNSLKPEDTAFYYCNAYYRREPDDGDYDYWGQGSQVTVSS | high polyreactivity |
| QVQLVESGGGLVQAGGSLRLSCAGSGSIFHPYAMGWYRQAPGKERELVAAISKSGGNTYYADSVKGRFTISRDNAKNTVYLQMNSLKPEATAVYYCAALDYWGQGTQVTVSS | low polyreactivity |
| QVQLVESGGGLVQAGGSLRLSCAASGFTFYTYVMGWYRQAPGKERELVAAITSGVSTNYADSVKGRFTISRDNAKNTVYLQMNSVKPEDTAVYYCAAGYPSWYYGYPYDSWGQGTQVTVSS | low polyreactivity |
| QVQLVESGGGLVQAGGSLRLSCAASGIIFRSNAMGWYRQAPGKERELVAAISRTGRTYYADSVKGRFTISRDNAKNTVNLQMNSLKPEDTAVYYCAVGIVQRDSRYYYWGQGTQVTVSS | high polyreactivity |
| HVQLEESGRGLVQAGGSLRLSCAASGRTFTSNAIGWYRQAPGKERELVAVITSGGSTNYADSVKGRFTISRDNAMNTVYLQMNSLKPEDTAVYYCNARSGRGQAYGYWGQGTQVTVSS | high polyreactivity |
| QVQLVESGGGLVQAGGSLRLSCAASGSIFDRYAMGWYRQAPGKERELVASIRQRGGSTYYADSVKGRFTISRDNAKNTVYLQMNSLKPEDTAVYYCAARKYPFRQSTYDYWGQGTQVTVSS | low polyreactivity |
| QVQLVESGGGLDQAGGSLRLSCAASGGTFAVYAMGWYRQAPGKERELVAAIDSGGRTNYADSVKGRFTISRANAKNTVYLQMNSLKPEDTAVYYCAADGGGQYVRYDYWGQGTQVTVSS | high polyreactivity |
| QVQLVESGGGLVQAGGSLRLSCAASGFIIVIYAMGWYIQAPGKERELVAAIRWRGGGTYYADSVKGRFTISRDNAKNTVYLQMNSLKPEDTAVYYCNADGWTYREEYWWRMDYWGLGTQVTVSS | low polyreactivity |
| QVQVEDTGGGLVQEGGSHRLSCAASGRTFYYYTMGRYRQPPVKEREFVAAITISGARTYYADSVKGRFTISRDNAKNTVYLQMNSLKPEDTPVYYCAARRRYRSRVTTVGYNYWGQGTQVTVSS | high polyreactivity |
| QVQLVESGGGLVQAGGSLRLSCAASGSIFYPYAMGWYRQAPGKERELVAGITYRAGSTYYADSVKGRFTISRDNAKNTVYLQMNSLKPEDTAVYYCAASQSYAFDWGQGTQVTVSS | high polyreactivity |
| QVQLVESGGGLVQAGGSLRLSCAASGIIFYRNTMGWYRQAPGKEWELVAAIRRGGNTYYADSVKGRFTISRDNAKNTVYLQMNSLKPEDTAVYYCAASAGPRASYYYWGQGTQVTVSS | high polyreactivity |
| QVQLVESGGGLVQAGGSLRLSCAASGYIFQRYTMGWYRQAPGKERELVAAITRSGGRTYYADSVKGRFTISRDNAKNTVYLQMNSLKPEDTAVYYCAVDYRTRGDYWGQGTQVTVSS | high polyreactivity |
| QVQLVESGGGLVQAGASLRLSCAASGRIYIYAMGWYRQAPGKEREMVAAITGGASTNYADSVKGRFTISRDNAKNTVYLQLISLKPEDTAVYYCNAVAYVYGSFRRRPMGYWGQGTQVTVSS | high polyreactivity |
| QVQLVESGGGLVQAGGSLRLSCAASGSIFVGNAMGWYRQAPGKERELVAAISSSGGSTYYADSVKGRFTISRDNAKNTVYLQMNSLKPEDTAVYYCAADTYSTSVYYYWGQGTQVTVSS | low polyreactivity |
| QVQLVESGGGLVQAGGSLRLSCAASGFIFWKYAMGWYRPAPGKERELVAAISRSGGRTYYADSVKGRFTISRDNAKNTVYLQMNSLKPEDTAVYYCAKDSATYPYGTVGEYNYWGQGTQVTVSS | high polyreactivity |
| QVQHVESGGGLVQAGGSLRLSCAASGFIFWDYAMGWYRQAPGKERELVAAISDSGGDTYYADSVKGRFTISRDNAKNTVYLQMNSLIPEDTAVYYCAAETYCGGYPVTYDYWGQGTQVTVSS | low polyreactivity |
| QVQLVESGGGLVQAGGSLRLSCAASGITFYGYAMGWYRQAPGKERELVASINSTGSTNYADSVKGRFTISRDNAKNTVYLQMNSLKPDDTAVYYCAARYRDGYRSKRKFGYWGQGTQVTVSS | high polyreactivity |
| QVQLVESGGGLVQAGGSLLLSCAASGRTFRPYSMGWYRQAPGKERELVAAITRSGGSTYYADSVKGRFTISRDNEKNTVYLQMNSLKPEDTAVYYCAAYNTYSDTYDYWGQGTQVTVSS | low polyreactivity |
| QVQLVESGGGLVQAGGSLRLSCAASGYTLFRNAMGSYRQAPGKERELGAAISRSGARTYYADSVKGRFTISRDNAKNTVYLQMNSLKPEDTAVYYCAAVIKWTKDDYWGQGTQVTVSS | high polyreactivity |
| QVQLVESGGGLVQAGVSLRLSCAASGRIKDNVMGWYRQAPGKERELVAAITRYAGRTYYAYSVKGRFTISRDNAKITVYLQMNSLKPVDTAVYYCAAQAERSGYEYWGLGTQVTVSS | low polyreactivity |
| QVQLVESGGGLVQAGGSLRLSCAASGSTFIYYAMGWYRQAPGKERELVAAISGSGASTYYADSVKGRFTISRDNAKNTVYLQMNSLKPEDTAVYYCHFYRWRGYDYWGQGTQVTVSS | high polyreactivity |

| Sequence | polyreactivity (PSR sort gate) |
| --- | --- |
| QVQLVESGGGLVQAGGRLRLSCAASGRIFKTNAMGWYRQAPGKERELVPAISKRGGRTYYADSVKGRFTISRDNAKNTVYLQMNSLKPEDTAVYYCATRYSGYSLGDYWGQGTQVTVSS | high polyreactivity |
| QVQLVESGGGLVQAGGSLRLSCAASGRTFNYYAMGWYRQAPGKERELVATITFSGDGSTYYAHSVKGRFTISRDNAKNTVYLHMNSLKPEDTAVYYCTADIEKSYNYWGQGTQVTVSS | low polyreactivity |
| QDQLVESGGGLVQAGGSLRLSCAASGSIFGKYTMGWYRQAPGKERELVAAISRSGSSTYYADSVKGRFTISRDNAKNTVYLQMNSLKPEDTAVYYCAAKFYYGVTSKFESWGQGTQVTVSS | high polyreactivity |
| QLQLVESGGGLVQAGGSLRLSCAASGSTFGPYAMGWYRQAPGKDRELVASITRSGGDTYYADSVKGRFTISRDNAKNSVYLQMNSLKPEDTAVYYCNKASHANEFGYWGQGTQVTVSS | high polyreactivity |
| QVQLVESGGGLVQAGGSLRLSCAASGFILLYYAMGWYRQAPGKERELVAAISWTGGRTYYADSVKGRFTISRDNAKNTVYLQMNSLKPEDTAVYYCNTVKFFGRKYGYWGQGTQVTVSS | low polyreactivity |
| QVQLVESGGGLVQAGGSLRLSCAASGGIFQENAMGWYRPAPGKERELVATITRSTGSTYYADSVKGRFTISRDNAKNTVYLQMNSLKPEDTAVYYCAARRRSQYYRYAYKYDYWGQGTQVTVSS | high polyreactivity |
| QVQIVESGGGLVQARGSLRLSCAAYGRIIYRYAMGWYRQAPGKERELVAAISASGRTYYADSVKGRFTISRDNAKNTVYLQMNSLKPADTAVYYCAKVAAGSLGSWGQGTQVTVSS | high polyreactivity |
| QVQLVESGGGLVQAGGSLRLSCAASGFIFTYNAMGWYRQAPGKERELVAAMNSGGITYYADSVKGRFTISRDNAKNPVYLQMNSLKPEDTAVYYCAKRRQIGWITYDYCGQGTQVTVSS | low polyreactivity |
| QVQLVESGGGLVQAGGSLRLSCAASGRIFITNAMGWYRQAPGKERELVAAIRRRGGNTYYADSVKGRFTISRDNANNTVYLQINSLKPEDTAVYYCAVYPRPYKYNYWGQGTQVTVSS | high polyreactivity |
| QVQLQESGGGLVQAGGSLRLSCAASGTISPLPAMGWYRQAPGKEREFVAGIDTGAITNYADSVKGRFTISRDNAKITVYLQMNSLKPEDTAVYYCAVFPAAYDYYERYYTYWGQGTQVTVSS | low polyreactivity |
| QVQLVESGGGLVQAGGSLRLSCAASGRTFGLYDMGWYRQAPGKERELVAGITRRGGRTYYADSVKGRFTISRDNAKNTVYLQMNSLKPEDTAVYYCAVVTRYRYDYWGQGTQVTVSS | high polyreactivity |
| QVQLVESGGGLVQAGGSLRLSCAASGSIFYYYAMGWYRQAPGKERELVAAISKSGGSTYADSVKGRFTISRDNAKNTVYLQMNSLKPEDTAVYYCAATYYYSWYAFNYWGQGTQVTVSS | low polyreactivity |
| QVQLVDSGGGLVKAGGSLRISCPASGITLKYYSMGWYRPSPGKERELVAAITRSGVGTYYADSVKGRFTISRDNAKNTVYLQMNSLKPEDTAVYYCAARGGWLQTKYDYWGQGTQVTVSS | high polyreactivity |
| QVQLVESGGGLVQAGGSLRLSCAASGRTISWYVMGWYRQAPGKERELVAAISWNGGRTYYADSVKGRFTISRDNAKNTVYLQMNSLKPEDTAVYYCAAKNYHGYPFDYWGQGTQVTVSS | high polyreactivity |
| QVQLVESGGGLVQAGGSLRLSCAASGSTFYFNAMGWYRQAPGKERELVATISDNDGSTNYADSVKGRFTISRDNAKNTVYLQMNSLKPEDTAVYYCNADWYYYYEEDDYWGQGTQVTVSS | low polyreactivity |
| QVQLVESGGGLVQAGGSLRLSCAASGSTFIRYAMGWYRQAPGKERELVAAITWRGGSTYYADSVKGRFTISRDNAKNTVYLQMNSLKPEDTAVYYCAARDRDTRNYYWGQGTQVTVSS | high polyreactivity |
| QVQLVESGGGLVQAGGSLRLSCAASGSIFWVNGMGWYRQAPGKERELVAAITWSGGSTYYADSVKGRFTISRDNAKNTVYLQMNSLKPEDTAVYYCAAYCQYYLWDGYGYWGQGTQVTVSS | low polyreactivity |
| QVQLVESGGGLVQAGGSLRLSCAASGFTISSYVMGWYRQAAGKEREVVAAISSSGARTYYADSVKGRFTISRDNAKNTVYLQMNSLKPEDTAVYYCAADNSPRPYDYWGQGTQVTVSS | high polyreactivity |
| QVQLVESGGGLFQAGGSLPVSCAASGFIFDDYAMGWYRQAPGKERELVAAISSGGSTNYADSVKGRFTISRDNAKNTVYLQLNSLKPEDSAVYYCADRAGYQFSYNYWGQGTQVTVSS | high polyreactivity |
| QVQLVESGGGLVQAGGSLRLSCAASGFIFSQNTMGWYRQAPGKERELVAAISKSGGTTYYADSVKGRFTISRDNAKNTVYLQMNSLKPEDTAVYYCARDKGYVSYRYNYWGQGTQVTVSS | high polyreactivity |
| QVQLVESGGGLVQAGGSLRLSCAASGLIYSYNAMGWTRQAPGKERELVAAISRSGGTPYYADSVKGRFTISRDNANNTVYLQMNSLKPEDTEVYYCAAEIRFLSWEYDYWGQGTQVSVSS | high polyreactivity |
